US20240066131A1 (Protagonist Therapeutics, Inc., priority 2020, published 2024)
Starred links: 1 amine or outer side, 2 acyl side, 3 side chain; linkers in the order of their positions; H or OH if unused. Non-standard residues stand in square brackets, D forms with d. Groups on a side chain read outwards from the residue. *: point of attachment. Tet2 = (S)-2-amino-4-(1H-tetrazol-5-yl)butanoic acid, O=C([C@H](CCc1nn[nH]n1)N[*:1])[*:2]; Ala(1H-tetrazol-5-yl) = N[C@@H](Cc1nnn[nH]1)C(=O)O; C18 diacid = O=C(O)CCCCCCCCCCCCCCCCC(=O)*; Dip = N[C@H](C(=O)O)C(c1ccccc1)c1ccccc1; His(τ-Me) = Cn1cnc(C[C@H](N)C(=O)O)c1; Palmitoyl = CCCCCCCCCCCCCCCC(=O)*; β3hF = N[C@H](CC(=O)O)Cc1ccccc1; His(1-Me) = 1-methylhistidine; Isovaleryl = CC(C)CC(=O)*; AEEA = NCCOCCOCC(=O)O; Ahx = NCCCCCC(=O)O

T1: human ferroportin (SLC40A1) fused in frame with GFP, stably expressed in HEK293 cells (human, UniProt Q9NP59 1-571)
T1 sequence (looked up): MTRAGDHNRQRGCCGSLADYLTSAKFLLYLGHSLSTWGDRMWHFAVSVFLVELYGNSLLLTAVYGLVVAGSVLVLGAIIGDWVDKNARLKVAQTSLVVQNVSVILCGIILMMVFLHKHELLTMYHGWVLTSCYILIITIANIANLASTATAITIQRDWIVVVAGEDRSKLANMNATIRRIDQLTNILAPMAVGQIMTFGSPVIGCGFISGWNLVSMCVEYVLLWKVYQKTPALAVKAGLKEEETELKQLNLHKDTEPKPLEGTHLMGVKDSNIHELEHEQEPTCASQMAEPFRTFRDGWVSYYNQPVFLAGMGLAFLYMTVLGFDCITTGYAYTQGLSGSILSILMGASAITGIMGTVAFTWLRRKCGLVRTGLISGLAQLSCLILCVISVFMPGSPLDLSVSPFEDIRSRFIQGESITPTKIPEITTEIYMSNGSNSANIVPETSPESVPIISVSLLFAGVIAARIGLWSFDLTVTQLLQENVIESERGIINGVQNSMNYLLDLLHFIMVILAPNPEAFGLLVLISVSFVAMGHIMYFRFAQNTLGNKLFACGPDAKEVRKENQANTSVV

B1: Isovaleric Acid-E-T-H-[Dpa]-P-E-I-[(D)Lys]-[bhPhe]-[Lys(Ahx_Palm)]-NH2 (peptide)
peptide: Isovaleryl-ETH[Dip]PEI[dK][β3hF]K([Ahx-Palmitoyl])-NH2
SMILES: CCCCCCCCCCCCCCCC(=O)NCCCCCC(=O)NCCCC[C@H](NC(=O)C[C@H](Cc1ccccc1)NC(=O)[C@@H](CCCCN)NC(=O)[C@@H](NC(=O)[C@H](CCC(=O)O)NC(=O)[C@@H]1CCCN1C(=O)[C@@H](NC(=O)[C@H](Cc1c[nH]cn1)NC(=O)[C@@H](NC(=O)[C@H](CCC(=O)O)NC(=O)CC(C)C)[C@@H](C)O)C(c1ccccc1)c1ccccc1)[C@@H](C)CC)C(N)=O
B2: Isovaleric Acid-[Tet2]-T-H-[Dpa]-P-A-I-[Lys(Ac)]-[bhPhe]-[(D)Lys]-A-NH2 (peptide)
peptide: Isovaleryl-[Tet2]TH[Dip]PAIK(Ac)[β3hF][dK]A-NH2
SMILES: CC[C@H](C)[C@H](NC(=O)[C@H](C)NC(=O)[C@@H]1CCCN1C(=O)[C@@H](NC(=O)[C@H](Cc1c[nH]cn1)NC(=O)[C@@H](NC(=O)[C@H](CCc1nn[nH]n1)NC(=O)CC(C)C)[C@@H](C)O)C(c1ccccc1)c1ccccc1)C(=O)N[C@@H](CCCCNC(C)=O)C(=O)N[C@H](CC(=O)N[C@H](CCCCN)C(=O)N[C@@H](C)C(N)=O)Cc1ccccc1
B3: Isovaleric Acid-E-T-H-[Dpa]-P-A-I-[bhPhe]-[(D)Lys]-A-NH2 (peptide)
peptide: Isovaleryl-ETH[Dip]PAI[β3hF][dK]A-NH2
SMILES: CC[C@H](C)[C@H](NC(=O)[C@H](C)NC(=O)[C@@H]1CCCN1C(=O)[C@@H](NC(=O)[C@H](Cc1c[nH]cn1)NC(=O)[C@@H](NC(=O)[C@H](CCC(=O)O)NC(=O)CC(C)C)[C@@H](C)O)C(c1ccccc1)c1ccccc1)C(=O)N[C@H](CC(=O)N[C@H](CCCCN)C(=O)N[C@@H](C)C(N)=O)Cc1ccccc1
B4: Isovaleric Acid-E-T-H-[Dpa]-P-A-I-[(D)Lys]-A-[Lys(Ahx_Palm)]-[(D)Lys]-A-NH2 (peptide)
peptide: Isovaleryl-ETH[Dip]PAI[dK]AK([Ahx-Palmitoyl])[dK]A-NH2
SMILES: CCCCCCCCCCCCCCCC(=O)NCCCCCC(=O)NCCCC[C@H](NC(=O)[C@H](C)NC(=O)[C@@H](CCCCN)NC(=O)[C@@H](NC(=O)[C@H](C)NC(=O)[C@@H]1CCCN1C(=O)[C@@H](NC(=O)[C@H](Cc1c[nH]cn1)NC(=O)[C@@H](NC(=O)[C@H](CCC(=O)O)NC(=O)CC(C)C)[C@@H](C)O)C(c1ccccc1)c1ccccc1)[C@@H](C)CC)C(=O)N[C@H](CCCCN)C(=O)N[C@@H](C)C(N)=O
B5: Isovaleric Acid-E-T-H-[Dpa]-P-[Lys(Ahx_Palm)]-I-[(D)Lys]-[bhPhe]-[Lys(Ac)]-NH2 (peptide)
peptide: Isovaleryl-ETH[Dip]PK([Ahx-Palmitoyl])I[dK][β3hF]K(Ac)-NH2
SMILES: CCCCCCCCCCCCCCCC(=O)NCCCCCC(=O)NCCCC[C@H](NC(=O)[C@@H]1CCCN1C(=O)[C@@H](NC(=O)[C@H](Cc1c[nH]cn1)NC(=O)[C@@H](NC(=O)[C@H](CCC(=O)O)NC(=O)CC(C)C)[C@@H](C)O)C(c1ccccc1)c1ccccc1)C(=O)N[C@H](C(=O)N[C@H](CCCCN)C(=O)N[C@H](CC(=O)N[C@@H](CCCCNC(C)=O)C(N)=O)Cc1ccccc1)[C@@H](C)CC
B6: Isovaleric Acid-E-A-H-[Dpa]-P-A-I-[(D)Lys]-[bhPhe]-[Lys(Ahx_Palm)]-[(D)Lys]-A-NH2 (peptide)
peptide: Isovaleryl-EAH[Dip]PAI[dK][β3hF]K([Ahx-Palmitoyl])[dK]A-NH2
SMILES: CCCCCCCCCCCCCCCC(=O)NCCCCCC(=O)NCCCC[C@H](NC(=O)C[C@H](Cc1ccccc1)NC(=O)[C@@H](CCCCN)NC(=O)[C@@H](NC(=O)[C@H](C)NC(=O)[C@@H]1CCCN1C(=O)[C@@H](NC(=O)[C@H](Cc1c[nH]cn1)NC(=O)[C@H](C)NC(=O)[C@H](CCC(=O)O)NC(=O)CC(C)C)C(c1ccccc1)c1ccccc1)[C@@H](C)CC)C(=O)N[C@H](CCCCN)C(=O)N[C@@H](C)C(N)=O
B7: Isovaleric Acid-[Tet2]-T-[(1-Me)His]-[Dpa]-P-A-I-[Lys(Ac)]-[bhPhe]-[(D)Lys]-NH2 (peptide)
peptide: Isovaleryl-[Tet2]T[His(τ-Me)][Dip]PAIK(Ac)[β3hF][dK]-NH2
SMILES: CC[C@H](C)[C@H](NC(=O)[C@H](C)NC(=O)[C@@H]1CCCN1C(=O)[C@@H](NC(=O)[C@H](Cc1cn(C)cn1)NC(=O)[C@@H](NC(=O)[C@H](CCc1nn[nH]n1)NC(=O)CC(C)C)[C@@H](C)O)C(c1ccccc1)c1ccccc1)C(=O)N[C@@H](CCCCNC(C)=O)C(=O)N[C@H](CC(=O)N[C@H](CCCCN)C(N)=O)Cc1ccccc1
B8: Isovaleric Acid-E-T-H-[Dpa]-P-[(D)Lys]-I-[(D)Lys]-[bhPhe]-[Lys(Ahx_Palm)]-NH2 (peptide)
peptide: Isovaleryl-ETH[Dip]P[dK]I[dK][β3hF]K([Ahx-Palmitoyl])-NH2
SMILES: CCCCCCCCCCCCCCCC(=O)NCCCCCC(=O)NCCCC[C@H](NC(=O)C[C@H](Cc1ccccc1)NC(=O)[C@@H](CCCCN)NC(=O)[C@@H](NC(=O)[C@@H](CCCCN)NC(=O)[C@@H]1CCCN1C(=O)[C@@H](NC(=O)[C@H](Cc1c[nH]cn1)NC(=O)[C@@H](NC(=O)[C@H](CCC(=O)O)NC(=O)CC(C)C)[C@@H](C)O)C(c1ccccc1)c1ccccc1)[C@@H](C)CC)C(N)=O
B9: Isovaleric Acid-[Tet1]-T-[(1-Me)His]-[Dpa]-P-A-I-[Lys(Ac)]-[bhPhe]-[(D)Lys]-A-NH2 (peptide)
peptide: Isovaleryl-[Ala(1H-tetrazol-5-yl)]T[His(τ-Me)][Dip]PAIK(Ac)[β3hF][dK]A-NH2
SMILES: CC[C@H](C)[C@H](NC(=O)[C@H](C)NC(=O)[C@@H]1CCCN1C(=O)[C@@H](NC(=O)[C@H](Cc1cn(C)cn1)NC(=O)[C@@H](NC(=O)[C@H](Cc1nnn[nH]1)NC(=O)CC(C)C)[C@@H](C)O)C(c1ccccc1)c1ccccc1)C(=O)N[C@@H](CCCCNC(C)=O)C(=O)N[C@H](CC(=O)N[C@H](CCCCN)C(=O)N[C@@H](C)C(N)=O)Cc1ccccc1
B10: Isovaleric Acid-[Tet1]-T-[(1-Me)His]-[Dpa]-P-A-I-[bhPhe]-[(D)Lys]-A-NH2 (peptide)
peptide: Isovaleryl-[Ala(1H-tetrazol-5-yl)]T[His(τ-Me)][Dip]PAI[β3hF][dK]A-NH2
SMILES: CC[C@H](C)[C@H](NC(=O)[C@H](C)NC(=O)[C@@H]1CCCN1C(=O)[C@@H](NC(=O)[C@H](Cc1cn(C)cn1)NC(=O)[C@@H](NC(=O)[C@H](Cc1nnn[nH]1)NC(=O)CC(C)C)[C@@H](C)O)C(c1ccccc1)c1ccccc1)C(=O)N[C@H](CC(=O)N[C@H](CCCCN)C(=O)N[C@@H](C)C(N)=O)Cc1ccccc1
B11: Isovaleric Acid-E-T-H-[Dpa]-P-A-I-[Lys(1Peg2_1Peg2_Ahx_C18_Diacid-[(D)Lys]-[bhPhe]-[(D)Lys]-A-NH2 (peptide)
peptide: Isovaleryl-ETH[Dip]PAIK([AEEA-AEEA-Ahx-C18 diacid])[dK][β3hF][dK]A-NH2
SMILES: CC[C@H](C)[C@H](NC(=O)[C@H](C)NC(=O)[C@@H]1CCCN1C(=O)[C@@H](NC(=O)[C@H](Cc1c[nH]cn1)NC(=O)[C@@H](NC(=O)[C@H](CCC(=O)O)NC(=O)CC(C)C)[C@@H](C)O)C(c1ccccc1)c1ccccc1)C(=O)N[C@@H](CCCCNC(=O)COCCOCCNC(=O)COCCOCCNC(=O)CCCCCNC(=O)CCCCCCCCCCCCCCCCC(=O)O)C(=O)N[C@H](CCCCN)C(=O)N[C@H](CC(=O)N[C@H](CCCCN)C(=O)N[C@@H](C)C(N)=O)Cc1ccccc1
B12: Isovaleric Acid-E-T-H-[Dpa]-P-F-I-[(D)Lys]-[bhPhe]-[Lys(Ahx_Palm)]-NH2 (peptide)
peptide: Isovaleryl-ETH[Dip]PFI[dK][β3hF]K([Ahx-Palmitoyl])-NH2
SMILES: CCCCCCCCCCCCCCCC(=O)NCCCCCC(=O)NCCCC[C@H](NC(=O)C[C@H](Cc1ccccc1)NC(=O)[C@@H](CCCCN)NC(=O)[C@@H](NC(=O)[C@H](Cc1ccccc1)NC(=O)[C@@H]1CCCN1C(=O)[C@@H](NC(=O)[C@H](Cc1c[nH]cn1)NC(=O)[C@@H](NC(=O)[C@H](CCC(=O)O)NC(=O)CC(C)C)[C@@H](C)O)C(c1ccccc1)c1ccccc1)[C@@H](C)CC)C(N)=O
B13: Isovaleric Acid-[Tet1]-T-H-[Dpa]-P-A-I-[Lys(Ac)]-[bhPhe]-[(D)Lys]-A-NH2 (peptide)
peptide: Isovaleryl-[Ala(1H-tetrazol-5-yl)]TH[Dip]PAIK(Ac)[β3hF][dK]A-NH2
SMILES: CC[C@H](C)[C@H](NC(=O)[C@H](C)NC(=O)[C@@H]1CCCN1C(=O)[C@@H](NC(=O)[C@H](Cc1c[nH]cn1)NC(=O)[C@@H](NC(=O)[C@H](Cc1nnn[nH]1)NC(=O)CC(C)C)[C@@H](C)O)C(c1ccccc1)c1ccccc1)C(=O)N[C@@H](CCCCNC(C)=O)C(=O)N[C@H](CC(=O)N[C@H](CCCCN)C(=O)N[C@@H](C)C(N)=O)Cc1ccccc1
B14: Isovaleric Acid-E-T-A-[Dpa]-P-A-I-[(D)Lys]-[bhPhe]-[Lys(Ahx_Palm)]-[(D)Lys]-A-NH2 (peptide)
peptide: Isovaleryl-ETA[Dip]PAI[dK][β3hF]K([Ahx-Palmitoyl])[dK]A-NH2
SMILES: CCCCCCCCCCCCCCCC(=O)NCCCCCC(=O)NCCCC[C@H](NC(=O)C[C@H](Cc1ccccc1)NC(=O)[C@@H](CCCCN)NC(=O)[C@@H](NC(=O)[C@H](C)NC(=O)[C@@H]1CCCN1C(=O)[C@@H](NC(=O)[C@H](C)NC(=O)[C@@H](NC(=O)[C@H](CCC(=O)O)NC(=O)CC(C)C)[C@@H](C)O)C(c1ccccc1)c1ccccc1)[C@@H](C)CC)C(=O)N[C@H](CCCCN)C(=O)N[C@@H](C)C(N)=O

Biological target: T1, human ferroportin (SLC40A1) fused in …
Assay: cell-based or functional assay

Binder	FPN EC50 [nM]
B1	682
B2	117
B3	915
B4	50.6
Isovaleryl-ET[His(1-Me)][Dip]PAIK(Ac)[β3hF][dK]A-NH2 [Isovaleric Acid-E-T-[(1-Me)His]-[Dpa]-P-A-I-[Lys(Ac)]-[bhPhe]-[(D)Lys]-A-NH2]	> 3000
B5	91.9
B6	492
Isovaleryl-[Tet2]T[His(τ-Me)][Dip]PAIK(Ac)[β3hF][dK]A-NH2 [Isovaleric Acid-[Tet2]-T-[(1-Me)His]-[Dpa]-P-A-I-[Lys(Ac)]-[bhPhe]-[(D)Lys]-A-NH2]	> 3000
B7	> 3000
B8	532
B9	> 3000
B10	241
B11	325
Isovaleryl-ATH[Dip]PAI[dK][β3hF]K([Ahx-Palmitoyl])-NH2 [Isovaleric Acid-A-T-H-[Dpa]-P-A-I-[(D)Lys]-[bhPhe]-[Lys(Ahx_Palm)]-NH2]	40.6
B12	24.1
B13	18.9
B14	356
